Consider seven compounds from patent US20240150424A1, “DIRECTED CHEMICAL CONJUGATE OF GLUCAGON-LIKE PEPTIDE-2 MUTANT, AND USE THEREOF” (PEG-BIO BIOPHARM CO.,LTD.(CHONGQING), priority 2021, published 2024).

Starred links: 1 amine or outer side, 2 acyl side, 3 side chain; linkers in the order of their positions; H or OH if unused. Non-standard residues stand in square brackets, D forms with d. Residues, ends and D or L forms follow the SMILES beside them. Groups on a side chain read outwards from the residue. No end group written: not given here. *: point of attachment. C18 diacid = O=C(O)CCCCCCCCCCCCCCCCC(=O)*; γGlu = O=C(O)[C@H](CCC(=O)[*:2])N[*:1]; AEEA = NCCOCCOCC(=O)O; Aib = CC(C)(N)C(=O)O

The target in one data set is T1, GLP-2R (Homo sapiens, UniProt O95838).
T1 construct: expressed in transfected cells; host or cells: HEK-293 cells, transfected and screened by Chongqing Paijin Biotechnology Co. Ltd. The receptor gene was constructed by Shanghai Shengbo Biomedical Technology Co. Ltd
T1 sequence (O95838 1-553): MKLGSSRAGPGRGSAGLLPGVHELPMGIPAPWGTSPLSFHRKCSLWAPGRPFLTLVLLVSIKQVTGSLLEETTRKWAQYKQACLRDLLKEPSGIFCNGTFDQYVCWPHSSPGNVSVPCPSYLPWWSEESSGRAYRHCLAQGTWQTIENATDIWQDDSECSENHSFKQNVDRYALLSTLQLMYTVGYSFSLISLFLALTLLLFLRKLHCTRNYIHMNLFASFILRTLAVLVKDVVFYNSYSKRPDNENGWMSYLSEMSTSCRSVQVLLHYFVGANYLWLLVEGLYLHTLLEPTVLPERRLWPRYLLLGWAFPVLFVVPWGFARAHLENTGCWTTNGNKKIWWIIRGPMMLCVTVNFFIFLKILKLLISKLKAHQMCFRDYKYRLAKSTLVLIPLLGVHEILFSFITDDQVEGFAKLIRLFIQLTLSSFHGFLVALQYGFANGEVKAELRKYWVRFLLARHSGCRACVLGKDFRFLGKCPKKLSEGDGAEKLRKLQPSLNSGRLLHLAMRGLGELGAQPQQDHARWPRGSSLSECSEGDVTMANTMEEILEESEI
The data set is described as follows: In vitro activity (cAMP) assay of glucagon-like peptide-2 mutants in HEK-293-GLP-2R cells. The settings on record: for in vitro activities compared with natural human glucagon-like peptide-2: summary statement. Type of data set: cell-based.

The conditions of data set [1]: cited reference on catabolism in rats; cited from earlier work.
The conditions of data set [2]: cited from earlier work.
A short description of data set [3]: Pharmacokinetic study in rats (ELISA). Type of data set: in vivo, SD rats. The method, then: 10 adult SD rats weighing 200-300 g were equally divided into 2 groups, 5 rats each group. PF01 and PF04 were administered subcutaneously at a single dose of 3 mg/Kg, respectively. Serum samples of all rats were collected before administration and 8 h, 24 h, 48 h, 72 h and 96 h after administration, and plasma concentrations were determined by ELISA.
(In general: ELISA stands for enzyme-linked immunosorbent assay.)

Data set [4] is described as follows: Pharmacokinetic study in Cynomolgus macaques (LC-MS/MS, NCA). The format is in vivo. The method, then: 4 adult Cynomolgus macaques, half males and half females, were used. PF01 was administered by subcutaneous injection at a single dose of 0.05 mg/Kg. Blood samples were collected before administration and 4 h, 8 h, 12 h, 24 h, 48 h, 72 h, 96 h, 120 h, 192 h and 288 h after administration. The concentrations of PF01 in the samples were determined by LC-MS/MS. The plasma concentration data were analyzed using WinNonlin, a pharmacokinetic data analysis software. […] The t1/2, Cmax, Tmax, AUC, Cl and Vd were calculated using a non-compartmental model (NCA).

Where [5] appears, read: cynomolgus monkey, in vivo, Cynomolgus macaques, sc single dose of 0.05 mg/Kg.

Method for GLP-2R: HEK-293-GLP-2R cells (HEK-293 cells were purchased from National Collection of Authenticated Cell Cultures, GLP-2R receptor gene sequence was recombinantly constructed by Shanghai Shengbo Biomedical Technology Co. Ltd., and HEK-293-GLP-2R cells were obtained by transfection and screening by Chongqing Paijin Biotechnology Co. Ltd.) were used to determine the in vitro activities of glucagon-like peptide-2 mutants. […] The cells were incubated at 37° C., 5% CO2 for 15 minutes, and then added with a cell lysis buffer. The cell lysates were extracted, and the OD value of cAMP was determined using a cAMP assay kit (RD company).

With “PT02: glucagon-like peptide-2 mutant, SEQ ID NO: 2: HAibDGSFSDEMNTILDNLAARDFINWLIQTRITDGGGGSK (H[Aib]DGSFSDEMNTILDNLAARDFINWLIQTRITDGGGGSK)”, the “in vitro activities compared with natural human glucagon-like peptide-2” value with GLP-2R is “consistent with the natural human glucagon-like peptide-2”. Moreover, the “in vitro cell viability relative to that of Teduglutide” value with GLP-2R (text summary of Table 3, Teduglutide as a standard) is on record as “comparable to that of Teduglutide”.

Turning to “GLP-2(3-33): hydrolyzed, inactive GLP-2(3-33) formed by dipeptidyl peptidase IV (DGSFSDEMNTILDNLAARDFINWLIQTKITD; Glucagon-like peptide 2; UniProt P01275 148-178, looked up, fragment)”, the half-life in vivo in data set [1] was 0.45 h.

For “hGLP-2: human glucagon-like peptide-2, SEQ ID NO: 9: HADGSFSDEMNTILDNLAARDFINWLIQTKITD”, the “half-life in vivo in humans” value in data set [2] is listed as 7 min.

For “PT01: glucagon-like peptide-2 mutant, SEQ ID NO: 1: HGDGSFSDEMNTILDNLAARDFINWLIQTRITDGGGGSK”, in the data set with GLP-2R, the “in vitro activities compared with natural human glucagon-like peptide-2” value was “consistent with the natural human glucagon-like peptide-2”.

Consider “PT03: glucagon-like peptide-2 mutant, SEQ ID NO: 3: HGDGSFSDEMNTILDNLAARDFINWLIQTRITDGGGGSGGGGSK”, for which the “in vitro activities compared with natural human glucagon-like peptide-2” value with GLP-2R is reported as “consistent with the natural human glucagon-like peptide-2”.

With “PT04: glucagon-like peptide-2 mutant, SEQ ID NO: 4: HGDGSFSDEMNTILDNLAARDFINWLIQTHITDGGGGSK”, the “in vitro activities compared with natural human glucagon-like peptide-2” value with GLP-2R was “consistent with the natural human glucagon-like peptide-2”.

As for `CC[C@H](C)[C@H](NC(=O)[C@H](Cc1ccccc1)NC(=O)[C@H](CC(=O)O)NC(=O)[C@H](CCCNC(=N)N)NC(=O)[C@H](C)NC(=O)[C@H](C)NC(=O)[C@H](CC(C)C)NC(=O)[C@H](CC(N)=O)NC(=O)[C@H](CC(=O)O)NC(=O)[C@H](CC(C)C)NC(=O)[C@@H](NC(=O)[C@@H](NC(=O)[C@H](CC(N)=O)NC(=O)[C@H](CCSC)NC(=O)[C@H](CCC(=O)O)NC(=O)[C@H](CC(=O)O)NC(=O)[C@H](CO)NC(=O)[C@H](Cc1ccccc1)NC(=O)[C@H](CO)NC(=O)CNC(=O)[C@H](CC(=O)O)NC(=O)CNC(=O)[C@@H](N)Cc1c[nH]cn1)[C@@H](C)O)[C@@H](C)CC)C(=O)N[C@@H](CC(N)=O)C(=O)N[C@@H](Cc1c[nH]c2ccccc12)C(=O)N[C@@H](CC(C)C)C(=O)N[C@H](C(=O)N[C@@H](CCC(N)=O)C(=O)N[C@H](C(=O)N[C@@H](CCCNC(=N)N)C(=O)N[C@H](C(=O)N[C@H](C(=O)N[C@@H](CC(=O)O)C(=O)NCC(=O)NCC(=O)NCC(=O)NCC(=O)N[C@@H](CO)C(=O)N[C@@H](CCCCNC(=O)COCCOCCNC(=O)COCCOCCNC(=O)CC[C@H](NC(=O)CCCCCCCCCCCCCCCCC(=O)O)C(=O)O)C(=O)O)[C@@H](C)O)[C@@H](C)CC)[C@@H](C)O)[C@@H](C)CC` [PF01] (H-HGDGSFSDEMNTILDNLAARDFINWLIQTRITDGGGGSK([AEEA-AEEA-γGlu-C18 diacid])-OH), the Cmax is 67500 ng/mL in data set [3] (rat, in vivo, rats, sc single dose of 3 mg/Kg) and 459 ng/mL in data set [4] (setting [5]). Also, the half-life in data set [3] (rat, in vivo, rats, sc single dose of 3 mg/Kg, read-out: T1/2 (converted)) is 20.3 h; in data set [3] (rat, in vivo, summary statement in description, read-out: in vivo half-life in rats (converted)) it was 21 h; in data set [4] (cynomolgus monkey, in vivo, Cynomolgus macaques, sc single dose of 0.05 mg/Kg, read-out: T1/2 (average) (converted)) it was 30.9 h; in data set [4] (cynomolgus monkey, in vivo, summary statement in description, read-out: in vivo half-life in cynomolgus monkeys (converted)), 30 h. Besides, the Tmax entry was “basically consistent with that of PF04” in data set [3] (rats, sc single dose of 3 mg/Kg) and 12 h in data set [4] (setting [5]). In data set [4] (based on T1/2 in Cynomolgus macaques), the “in vivo half-life, times longer than that of the natural hGLP-2” value is reported as “approximately 100 times”. The exposure (AUC) in data set [4] (setting [5]) was 21700 ng·h/mL.

One may read the Cmax as the peak of the concentration-time curve. By Tmax is commonly meant the time at which the peak concentration occurs. In general, AUC refers to concentration integrated over time. High values mean more exposure, low ones less exposure.
